We go through one substance from US20220119517A1.

Experiment [1] concerns the target human Claudin18.2 (CLDN18.2), full length, on cells (human). The experiment in a line: FACS on NUGC4 cells.
Experiment [2] has the same target. Nature of the experiment: cell-based or functional assay.
Experiment [3] deals with human Claudin18.1 (CLDN18.1), full length, on cells (human) (UniProt P56856). The experiment in a line: FACS on CHO-K1-CLDN18.1 cells.

In experiment [1], “human IgG1, kappa isotype control antibody” displayed an MFI (CLDN18.2) of 93 MFI. In experiment [2], the ADCC cytotoxicity by LDH method, PBMC effectors, Max (%) came out at 52%; the in-vitro ADCC activity, Jurkat-CD16A/NF luciferase reporter, EC50 is 13.5 nM; the in-vitro ADCC activity, Jurkat-CD16A/NF luciferase reporter, Top amounted to 6190. The same substance yielded an MFI (CLDN18.1) in experiment [3] of 219 MFI.
